Measurements taken from article PMC4383587, “The Evolutionary Origination and Diversification of a Dimorphic Gene Regulatory Network through Parallel Innovations in cis and trans”.

Biological target: GST-Abd-A DBD (Drosophila melanogaster, UniProt P29555-2 136-209)
Test: EMSA; 50 mM HEPES pH 7.9, 100 mM KCl, 1 mM DTT, 12.5 mM MgCl2, 0.05 mM EDTA, 17% glycerol, 400 ng/ul poly(dI-dC), 20 fmol probe, 0-3000 ng protein, 30 min on ice
Conditions: protein: recombinant; tags: N-terminal GST (pGEX4T1); label: 3' biotin on each strand; blunt

Sequence of GST-Abd-A DBD (P29555 396-469): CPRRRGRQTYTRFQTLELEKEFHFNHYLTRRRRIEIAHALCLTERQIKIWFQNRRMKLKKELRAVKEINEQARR

| Binder | binding result |
| --- | --- |
| Motif 4 (t_MSE2 site S4, Probe 5) (dsDNA) DNA 1: ATGTATACTAATTAGACAGTCTCTTTTTTT DNA 2: AAAAAAAGAGACTGTCTAATTAGTATACAT | binds |
| Motif 3 (t_MSE2 site S3, Probe 4) (dsDNA) DNA 1: GAGAATTCAAGATCATAATATGTATACTAA DNA 2: TTAGTATACATATTATGATCTTGAATTCTC | binds |
| Motif 5 (t_MSE2 site S5, Probe 6) (dsDNA) DNA 1: TTTTTATTACTTCAACTATTCAAATTT DNA 2: AAATTTGAATAGTTGAAGTAATAAAAA | binds |
